The text below walks through data of patent US20170137467A1 (CHROMOTEK, published 2017).

One assay concerns the target T1, KAAVSHWQQ
T1 construct: N-terminal truncation; also called β-catenin aa 19-27
T1 peptide: KAAVSHWQQ
Briefly: truncated peptides of β-catenin aa 14-27 on OVA-microspheres, biotinylated BC2-Nb, streptavidin-PE. An excerpt:
(§1) As negative controls, microspheres comprising Ovalbumin and the Myc-peptide ([…]) covalently coupled to OVA-microspheres were used. […] Evaluation of the PE-signals were done in a Flexmap 3D (Luminex).

The target of a further assay is T2, DRKAAVSHWQQ
T2 construct: N-terminal truncation; also called β-catenin aa 17-27
T2 peptide: DRKAAVSHWQQ
The description is as above.
Description: as §1

Assay [1] addresses T3, BC2T W10S peptide (BC2TW10X library) (human).
T3 construct: also called W10 permutant S
T3 peptide: Ac-PDRKAAVSHSQQ-NH2
The assay can be described thus: BC2TW10X library pulldown with immobilized Nb, LC-MS of the supernatant. As to the method:
(§2) To investigate the binding specificity of the BC2T and derived mutants peptide libraries for each amino acid position of the sequence […] (SEQ ID NO:4) were synthesized with acetyl and amide groups located at the N-termini or C-termini respectively (Intavis). […] Incubations were performed in 300 μl PBS/0.01% CHAPS for 1 h on a HulaMixer (Life Technologies). Subsequent to a centrifugation step 10 μl supernatant were analyzed in a LC-MS procedure. Peptides were separated using an UltiMate3000 RSLCnano System (Thermo Scientific), composed of a C18 PepMap100μ-Precolumn (300 μm×5 mm; particle size: 5 μm; pore size: 100 Å—Thermo Scientific) and a C18 analytical column (Acclaim Rapid Separation LC (RSLC) Column: 150 mm×5 mm; particle size: 2.2 μm; pore size: 100 Å—Thermo Scientific). A step gradient was applied starting at 8% and ending after 20 min at 30% eluent B (80% acetonitrile, 20% H₂O, 0.1% formic acid). Peptides were analyzed using a FULL-MS-strategy detected by a Q Exactive Plus mass spectrometer (Thermo Scientific). As maximal injection time 100 ms was chosen while setting the AGC target to 3E6. The resolution was set to 70.000. Half-maximal signal areas were referenced to control precipitation approaches using a GFP-specific nanobody immobilized on agarose beads. All experiments were done in triplicates.

Assay [2] has as its target T4, BC2T W10D peptide (BC2TW10X library) (human).
T4 construct: also called W10 permutant D
T4 peptide: Ac-PDRKAAVSHDQQ-NH2
Described as above. As to the method: as §2

In assay [3] the target is T5, BC2T W10R peptide (BC2TW10X library) (human).
T5 construct: also called W10 permutant R
T5 peptide: Ac-PDRKAAVSHRQQ-NH2
The assay is described as above. How it is done:
as §2

The target of assay [4] is T6, BC2T W10F peptide (BC2TW10X library) (human).
T6 construct: also called W10 permutant F
T6 peptide: Ac-PDRKAAVSHFQQ-NH2
The description is as above. How it is done:
as §2

In assay [5] the target is T7, BC2T W10Y peptide (BC2TW10X library) (human).
T7 construct: also called W10 permutant Y
T7 peptide: Ac-PDRKAAVSHYQQ-NH2
The assay is described as above. How it is done: as §2

The target in assay [6] is T8, BC2T W10E peptide (BC2TW10X library) (human).
T8 construct: also called W10 permutant E
T8 peptide: Ac-PDRKAAVSHEQQ-NH2
The assay is described as above. How it is done: as §2

In assay [7] the target is T9, BC2T W10A peptide (BC2TW10X library) (human).
T9 construct: also called W10 permutant A
T9 peptide: Ac-PDRKAAVSHAQQ-NH2
The description is as above. How it is done: as §2

Assay [8] has as its target T10, BC2T W10N peptide (BC2TW10X library) (human).
T10 construct: also called W10 permutant N
T10 peptide: Ac-PDRKAAVSHNQQ-NH2
The assay is described as above. How it is done:
as §2

The target in assay [9] is T11, BC2T W10G peptide (BC2TW10X library) (human).
T11 construct: also called W10 permutant G
T11 peptide: Ac-PDRKAAVSHGQQ-NH2
Described as above. How it is done:
as §2

Assay [10] has as its target T12, BC2T W10K peptide (BC2TW10X library) (human).
T12 construct: also called W10 permutant K
T12 peptide: Ac-PDRKAAVSHKQQ-NH2
The description is as above. How it is done:
as §2

The target in assay [11] is T13, BC2T W10I peptide (BC2TW10X library) (human).
T13 construct: Isobaric with the leucine peptide; also called W10 permutant I
T13 peptide: Ac-PDRKAAVSHIQQ-NH2
Described as above. How it is done:
as §2

In assay [12] the target is T14, BC2T W10T peptide (BC2TW10X library) (human).
T14 construct: also called W10 permutant T
T14 peptide: Ac-PDRKAAVSHTQQ-NH2
The description is as above. As to the method:
as §2

The target in assay [13] is T15, BC2T W10M peptide (BC2TW10X library) (human).
T15 construct: also called W10 permutant M
T15 peptide: Ac-PDRKAAVSHMQQ-NH2
The description is as above. How it is done: as §2

Assay [14] deals with T16, mCherry-Vimentin with C-terminal BC2 tag (mCherry-VIMBC2T) (human, UniProt P08670 1-466).
T16 construct: Expressed in HEK293T or HeLa cells; also called mCherry-VimentinBC2T; not shown: mCherry fluorescent protein
T16 sequence (P08670 other isoform, or with tags, fused parts or gaps): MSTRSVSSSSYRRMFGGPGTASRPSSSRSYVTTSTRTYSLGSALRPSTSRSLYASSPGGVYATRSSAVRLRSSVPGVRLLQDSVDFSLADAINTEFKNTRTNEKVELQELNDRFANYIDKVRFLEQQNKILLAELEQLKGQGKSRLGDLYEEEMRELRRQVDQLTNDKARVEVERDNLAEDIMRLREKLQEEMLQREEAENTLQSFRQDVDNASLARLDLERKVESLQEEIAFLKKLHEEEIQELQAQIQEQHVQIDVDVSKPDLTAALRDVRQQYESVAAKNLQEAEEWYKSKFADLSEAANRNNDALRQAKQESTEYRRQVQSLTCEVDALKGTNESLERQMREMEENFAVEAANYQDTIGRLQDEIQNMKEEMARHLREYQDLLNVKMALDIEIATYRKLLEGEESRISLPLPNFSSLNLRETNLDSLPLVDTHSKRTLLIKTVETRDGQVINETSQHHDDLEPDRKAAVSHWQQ
The assay can be described thus: immunoprecipitation from HEK293T lysate, immunoblot with anti-vimentin. How it is done: HEK293T cells transiently expressing eGFP, eGFPBC2T or BC2TeGFP, eGFP-PCNA, eGFP-PCNABC2T, mCherry-Vimentin, mCherry-VimentinBC2T were washed and harvested in phosphate buffered saline (PBS), snap-frozen in liquid nitrogen and stored at −20° C. Cell pellets were homogenized in 200 μl lysis buffer (10 mM Tris/Cl pH 7.5, 150 mM NaCl, 0.5% NP40, 1 μg DNaseI, 2 mM MgCl₂, 2 mM PMSF, 1× protease inhibitor mix M (Serva) by repeated pipetting for 40 min on ice. After a centrifugation step (10 min at 18.000×g) the protein concentration of each lysate was determined using a Pierce BCA Protein Assay Kit (Thermo Fisher Scientific) according to manufacturer's protocol and the protein solutions were adjusted with dilution buffer (10 mM Tris/Cl pH 7.5, 150 mM NaCl, 2 mM PMSF) to a concentration of 1 mg/ml. 2% of the supernatant were added to SDS-containing sample buffer (referred to as input). […] After a centrifugation step (2 min, 2500×g) the precleared supernatant was transferred to a new cup. 2% were added to SDS-containing sample buffer (referred to as non-bound). […] Samples were analyzed by SDS-PAGE followed by immunoblotting. Immunoblots were probed with indicated antibodies.
In general terms: A western blot detects proteins with antibodies after separation by electrophoresis.

B1: BC2 nanobody (VHH)
VHH: QVQLVESGGGLVQPGGSLTLSCTASGFTLDHYDIGWFRQAPGKEREGVSCINNSDDDTYYADSVKGRFTIFMDNAKDTVYLQMNSLKPEDTAIYYCAEARGCKRGRYEYDFWGQGTQVTVSS
notes: Alpaca VHH, 122 aa; also called BC2-Nb; BC2 nanotrap (BC2-Nb immobilized on agarose/Sepharose beads); not shown: C-terminal 6xHis-tag added by the pHEN6 vector
Turning to B1, the binding result with KAAVSHWQQ is “no binding (tested: 1 µg/ml BC2-Nb)”; with DRKAAVSHWQQ, “binds”; in [1], “no binding”; in assay [2], “no binding”; in assay [3], “no binding”; in assay [4], “no binding”. The binding result in assay [5], in assay [6], in [7], in [8], in assay [9] and in assay [10] was “no binding” each time. The binding result is “no binding” in [11], “no binding” in assay [12], “no binding” in [13] and “binds” in assay [14].
